Substrate: Nc1nc2c(ncn2[C@@H]2O[C@@H]3COP(=O)(O)O[C@H]4[C@@H](O)[C@H](n5cnc6c(N)ncnc65)O[C@@H]4COP(=O)(O)O[C@H]3[C@H]2O)c(=O)[nH]1
Assay: purified protein
Assay type: biochemical, Shewanella oneidensis
Conditions: pH 8.0

B1: (Shewanella oneidensis MR-1) (protein)
chain: MNAFLPHDFKVYMDVRHALLAVATALDFVGVDDLHHGHRVAYMAYECASVLGWPDEKKQFAYFAGLIHDCGVSSSEEHLRLLKLMQPEDAHCHSKRGYEALLECPILDVFAPIVLYHHTPWLELQSHDLSVFERDIAALIFLADRTDFLRARYTHGCHEELITLHESMVAENLLAHCGTLFEPEMVNAMCQLVKKDGFWYNMDATHIELLGLEFKANHFYDKELDIGGVKQLARFLARIVDAKSPFTFHHSEKVALLAKLVAKDCGISDTDAELLYVAGLLHDVGKLKTPDLLLHKEGKLTKEEYSIVKRHTVDTEHTLHRFFPKSVIGEWASNHHERLDGSGYPFSKRQEQLDLPSRILAVVDVFQALTQKRPYRGSLSLSEIYDIMQPMVDKGQLDAGVYSILLADIDNFYHLSTQEFQT
- Km: 119 ± 60 µM

From article PMC8177754
